From IntAct's records for PubMed 16137684

B1: Thyroid receptor-interacting protein 6 (Homo sapiens), Q15654 (parent)
chain: MSGPTWLPPKQPEPARAPQGRAIPRGTPGPPPAHGAALQPHPRVNFCPLPSEQCYQAPGGPEDRGPAWVGSHGVLQHTQGLPADRGGLRPGSLDAEIDLLSSTLAELNGGRGHASRRPDRQAYEPPPPPAYRTGSLKPNPASPLPASPYGGPTPASYTTASTPAGPAFPVQVKVAQPVRGCGPPRRGASQASGPLPGPHFPLPGRGEVWGPGYRSQREPGPGAKEEAAGVSGPAGRGRGGEHGPQVPLSQPPEDELDRLTKKLVHDMNHPPSGEYFGQCGGCGEDVVGDGAGVVALDRVFHVGCFVCSTCRAQLRGQHFYAVERRAYCEGCYVATLEKCATCSQPILDRILRAMGKAYHPGCFTCVVCHRGLDGIPFTVDATSQIHCIEDFHRKFAPRCSVCGGAIMPEPGQEETVRIVALDRSFHIGCYKCEECGLLLSSEGECQGCYPLDGHILCKACSAWRIQELSATVTTDC

Assays:
Conditions in all cases: with scrib_human SCRIB
[1] = variants of: B1
[2] = variants of: B1; remark: listed apart in the source
[3] = variants of: B1; remark: listed apart in the source
[4] = variants of: B1; remark: listed apart in the source

| effect of a mutation on the interaction [1] | effect of a mutation on the interaction [2] | effect of a mutation on the interaction [3] | effect of a mutation on the interaction [4] | Variant |
| --- | --- | --- | --- | --- |
| disrupting interaction | decreasing interaction | – | – | MSGPTWLPPKQPEPARAPQGRAIPRGTPGPPPAHGAALQPHPRVNFCPLPSEQCYQAPGGPEDRGPAWVGSHGVLQHTQGLPADRGGLRPGSLDAEIDLLSSTLAELNGGRGHASRRPDRQAYEPPPPPAYRTGSLKPNPASPLPASPYGGPTPASYTTASTPAGPAFPVQVKVAQPVRGCGPPRRGASQASGPLPGPHFPLPGRGEVWGPGYRSQREPGPGAKEEAAGVSGPAGRGRGGEHGPQVPLSQPPEDELDRLTKKLVHDMNHPPSGEYFGQCGGCGEDVVGDGAGVVALDRVFHVGCFVCSTCRAQLRGQHFYAVERRAYCEGCYVATLEKCATCSQPILDRILRAMGKAYHPGCFTCVVCHRGLDGIPFTVDATSQIHCIEDFHRKFAPRCSVCGGAIMPEPGQEETVRIVALDRSFHIGCYKCEECGLLLSSEGECQGCYPLDGHILCKACSAWRIQELSATVTTDA [C476A] |
| – | – | disrupting interaction | decreasing interaction | MSGPTWLPPKQPEPARAPQGRAIPRGTPGPPPAHGAALQPHPRVNFCPLPSEQCYQAPGGPEDRGPAWVGSHGVLQHTQGLPADRGGLRPGSLDAEIDLLSSTLAELNGGRGHASRRPDRQAYEPPPPPAYRTGSLKPNPASPLPASPYGGPTPASYTTASTPAGPAFPVQVKVAQPVRGCGPPRRGASQASGPLPGPHFPLPGRGEVWGPGYRSQREPGPGAKEEAAGVSGPAGRGRGGEHGPQVPLSQPPEDELDRLTKKLVHDMNHPPSGEYFGQCGGCGEDVVGDGAGVVALDRVFHVGCFVCSTCRAQLRGQHFYAVERRAYCEGCYVATLEKCATCSQPILDRILRAMGKAYHPGCFTCVVCHRGLDGIPFTVDATSQIHCIEDFHRKFAPRCSVCGGAIMPEPGQEETVRIVALDRSFHIGCYKCEECGLLLSSEGECQGCYPLDGHILCKACSAWRIQELSATVTADC [T474A] |
